Biological target: Recombinant MFG-E8 Protein (unlabelled, bound to NL4.3-GFP VLPs) (not stated (human or mouse recombinant protein bought)) (UniProt P21956)
Experiment: flow cytometry of viral-like particles; 1 × 10^4 NL4.3-GFP VLPs in 20 μl of 1% BSA/PBS or 1 × HBSS (1 mM Ca2+, 2 mM Mg2+, 1 mM Mn2+, 0.5% fatty acid free BSA) with MFG-E8 (5 μg/ml) and integrin αvβ3 (5 μg/ml) on ice for 30 min; bound proteins detected by αv and MFG-E8 antibodies

Chain of UniProt P21956 (P21956 23-463): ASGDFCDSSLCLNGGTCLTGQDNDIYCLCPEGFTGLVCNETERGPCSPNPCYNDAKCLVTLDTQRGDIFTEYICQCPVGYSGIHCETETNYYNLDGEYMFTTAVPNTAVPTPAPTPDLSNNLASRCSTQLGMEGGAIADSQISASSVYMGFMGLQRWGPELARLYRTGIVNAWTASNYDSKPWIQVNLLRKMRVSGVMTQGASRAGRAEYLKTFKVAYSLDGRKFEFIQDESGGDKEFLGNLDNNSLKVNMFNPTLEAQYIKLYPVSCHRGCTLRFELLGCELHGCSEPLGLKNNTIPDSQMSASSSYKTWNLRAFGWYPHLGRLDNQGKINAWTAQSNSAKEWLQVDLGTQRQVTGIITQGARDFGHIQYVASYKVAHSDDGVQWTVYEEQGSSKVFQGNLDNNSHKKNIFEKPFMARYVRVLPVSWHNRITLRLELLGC

Substance “Recombinant Human Integrin alpha V beta 3 Protein (from UniProt P06756 31-1048; P05106 27-718) (receptor)” has a percent of VLPs αvβ3/MFG-E8 positive of 80%.
